Assay results taken from patent US20250186597A1, “TARGETED IMMUNE ACTIVATION WITH IL-18 IMMUNOCYTOKINES” (BRIGHT PEAK THERAPEUTICS AG, priority 2023, published 2025).

Target: human IL-18BP-His (human) (UniProt O95998)
Test: AlphaLISA detection of free IL-18BP

Sequence of human IL-18BP-His (human) (O95998 31-194): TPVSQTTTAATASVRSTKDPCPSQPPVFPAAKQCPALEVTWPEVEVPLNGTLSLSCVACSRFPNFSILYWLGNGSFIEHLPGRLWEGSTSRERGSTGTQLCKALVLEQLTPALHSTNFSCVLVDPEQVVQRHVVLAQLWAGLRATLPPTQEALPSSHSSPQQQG

Q: With “IL-18 polypeptide C142 (Y1M, E6K, V11I, C38A, K53A, T63A, C76A, C127A) (from UniProt Q14116 38-193) (ligand)” as the substance, how does the Kd read?
A: The Kd was 2.25 nM.

Q: With “IL-18 polypeptide C143 (V11I, C38A, K53A, C76A, C127A) (from UniProt Q14116 37-193) (ligand)” as the substance, how does the Kd read?
A: The Kd was 8.86 nM.

Q: Which Kd does the source give for “IL-18 polypeptide C144 (V11I, C38A, K53A, T63A, C76A, C127A) (from UniProt Q14116 37-193) (ligand)” here?
A: Its Kd is 0.66 nM.

Q: With “IL-18 polypeptide C145 (V11I, C38A, K53A, S55A, C76A, C127A) (from UniProt Q14116 37-193) (ligand)” as the substance, how does the Kd read?
A: Its Kd is 9.74 nM.

Q: How did the Kd turn out when “IL-18 polypeptide C146 (SEQ ID NO: 68; V11I, C38A, M51G, K53A, C76A, C127A) (from UniProt Q14116 37-193) (ligand)” was run?
A: The Kd was 373 nM.

Q: How did the Kd turn out when “IL-18 polypeptide C147 (V11I, C38A, K53A, D54A, C76A, C127A) (from UniProt Q14116 37-193) (ligand)” was run?
A: Its Kd is 25.8 nM.

Q: Which Kd does the source give for “IL-18 polypeptide C148 (F2A, V11I, C38A, K53A, C76A, C127A) (from UniProt Q14116 37-193) (ligand)” here?
A: Its Kd is 57.2 nM.

Q: How did the Kd turn out when “IL-18 polypeptide C149 (V11I, E31A, C38A, K53A, C76A, C127A) (from UniProt Q14116 37-193) (ligand)” was run?
A: Its Kd is 0.64 nM.

Q: Which Kd does the source give for “IL-18 polypeptide C150 (V11I, T34A, C38A, K53A, C76A, C127A) (from UniProt Q14116 37-193) (ligand)” here?
A: Its Kd is 1.24 nM.

Q: “IL-18 polypeptide C151 (V11I, D35A, C38A, K53A, C76A, C127A) (from UniProt Q14116 37-193) (ligand)” was tested. Which Kd did it give?
A: Its Kd is 2.88 nM.

Q: With “IL-18 polypeptide C152 (V11I, S36A, C38A, K53A, C76A, C127A) (from UniProt Q14116 37-193) (ligand)” as the substance, how does the Kd read?
A: Its Kd is 1.12 nM.

Q: For “IL-18 polypeptide C153 (V11I, D37A, C38A, K53A, C76A, C127A) (from UniProt Q14116 37-193) (ligand)”, which Kd is on record?
A: Its Kd is 4.55 nM.

Q: How did the Kd turn out when “IL-18 polypeptide C154 (V11I, E31A, D37A, C38A, K53A, C76A, C127A) (from UniProt Q14116 37-193) (ligand)” was run?
A: The Kd was 2.12 nM.

Q: With “IL-18 polypeptide C155 (V11I, C38A, D40A, K53A, C76A, C127A) (from UniProt Q14116 37-193) (ligand)” as the substance, how does the Kd read?
A: The Kd was 0.74 nM.

Q: “IL-18 polypeptide C156 (V11I, C38A, N41A, K53A, C76A, C127A) (from UniProt Q14116 37-193) (ligand)” was tested. Which Kd did it give?
A: The Kd was 18.5 nM.

Q: For “IL-18 polypeptide C157 (V11I, C38A, K53A, C76A, C127A, D132A) (from UniProt Q14116 37-193) (ligand)”, which Kd is on record?
A: The Kd was 13.7 nM.

Q: “IL-18 polypeptide C158 (V11I, C38A, K53A, C76A, G108A, C127A) (from UniProt Q14116 37-193) (ligand)” was tested. Which Kd did it give?
A: The Kd was 1.24 nM.

Q: Which Kd does the source give for “IL-18 polypeptide C159 (V11I, C38A, K53A, C76A, H109A, C127A) (from UniProt Q14116 37-193) (ligand)” here?
A: The Kd was 0.55 nM.

Q: With “IL-18 polypeptide C160 (V11I, C38A, K53A, C76A, D110A, C127A) (from UniProt Q14116 37-193) (ligand)” as the substance, how does the Kd read?
A: The Kd was 0.71 nM.

Q: With “IL-18 polypeptide C161 (K8R, V11I, C38A, C76A, Q103E, C127A) (from UniProt Q14116 37-193) (ligand)” as the substance, how does the Kd read?
A: Its Kd is 0.06 nM.

Q: For “IL-18 polypeptide C162 (K8E, V11I, C38A, C76A, Q103R, C127A) (from UniProt Q14116 37-193) (ligand)”, which Kd is on record?
A: The Kd was 0.85 nM.

Q: With “IL-18 polypeptide C163 (V11I, C38A, C76A, Q103K, C127A) (from UniProt Q14116 37-193) (ligand)” as the substance, how does the Kd read?
A: Its Kd is 0.05 nM.

Q: How did the Kd turn out when “IL-18 polypeptide C164 (V11I, C38A, S55H, C76A, C127A) (from UniProt Q14116 37-193) (ligand)” was run?
A: The Kd was 0.08 nM.

Q: Which Kd does the source give for “IL-18 polypeptide C165 (V11I, C38A, S55R, C76A, C127A) (from UniProt Q14116 37-193) (ligand)” here?
A: The Kd was 0.15 nM.

Q: For “IL-18 polypeptide C166 (V11I, C38A, S55T, C76A, C127A) (from UniProt Q14116 37-193) (ligand)”, which Kd is on record?
A: The Kd was 0.02 nM.

Q: “IL-18 polypeptide C167 (V11I, C38A, C76A, S105I, C127A) (from UniProt Q14116 37-193) (ligand)” was tested. Which Kd did it give?
A: Its Kd is 0.04 nM.

Q: Which Kd does the source give for “IL-18 polypeptide C168 (V11I, C38A, C76A, S105K, C127A) (from UniProt Q14116 37-193) (ligand)” here?
A: Its Kd is 0.05 nM.

Q: For “IL-18 polypeptide C174 (K8L, E6K, V11I, C38A, K53A, T63A, C76A, C127A) (from UniProt Q14116 37-193) (ligand)”, which Kd is on record?
A: Its Kd is 0.14 nM.

Q: With “IL-18 polypeptide C176 (E6K, V11I, C38A, I49M, K53A, T63A, C76A, C127A) (from UniProt Q14116 37-193) (ligand)” as the substance, how does the Kd read?
A: Its Kd is 25.8 nM.

Q: For “IL-18 polypeptide C184 (E6R, V11I, C38A, K53A, T63A, C76A, C127A) (from UniProt Q14116 37-193) (ligand)”, which Kd is on record?
A: The Kd was 5.46 nM.

Q: For “IL-18 polypeptide of SEQ ID NO: 35 (Y01G, F02A, E06K, M51G, K53A, D54A, S55A, T63A) (from UniProt Q14116 37-193) (ligand)”, which Kd is on record?
A: The Kd was 969 nM.

Q: “IL-18 polypeptide of SEQ ID NO: 36 (K53A) (from UniProt Q14116 37-193) (ligand)” was tested. Which Kd did it give?
A: Its Kd is 514 nM.

Q: “IL-18 polypeptide of SEQ ID NO: 37 (S55A) (from UniProt Q14116 37-193) (ligand)” was tested. Which Kd did it give?
A: The Kd was 10.7 nM.

Q: With “IL-18 polypeptide of SEQ ID NO: 38 (E06K) (from UniProt Q14116 37-193) (ligand)” as the substance, how does the Kd read?
A: The Kd was 0.13 nM.

Q: How did the Kd turn out when “IL-18 polypeptide of SEQ ID NO: 39 (E06K, K53A) (from UniProt Q14116 37-193) (ligand)” was run?
A: The Kd was 130 nM.

Q: For “IL-18 polypeptide of SEQ ID NO: 40 (E06K, S55A) (from UniProt Q14116 37-193) (ligand)”, which Kd is on record?
A: Its Kd is 12.3 nM.

Q: “IL-18 polypeptide of SEQ ID NO: 41 (K53A, S55A) (from UniProt Q14116 37-193) (ligand)” was tested. Which Kd did it give?
A: Its Kd is 500 nM.

Q: With “IL-18 polypeptide of SEQ ID NO: 42 (E06K, K53A, S55A, T63A) (from UniProt Q14116 37-193) (ligand)” as the substance, how does the Kd read?
A: Its Kd is 822 nM.

Q: For “IL-18 polypeptide of SEQ ID NO: 47 (C38S, C68S, C76S, C127S) (from UniProt Q14116 37-193) (ligand)”, which Kd is on record?
A: Its Kd is 0.03 nM.

Q: With “IL-18 polypeptide of SEQ ID NO: 48 (C38S, C68S, C76S, C127S, K70C) (from UniProt Q14116 37-193) (ligand)” as the substance, how does the Kd read?
A: Its Kd is 0.21 nM.

Q: How did the Kd turn out when “IL-18 polypeptide of SEQ ID NO: 50 (E06K, K53A, T63A) (from UniProt Q14116 37-193) (ligand)” was run?
A: Its Kd is 340 nM.

Q: How did the Kd turn out when “IL-18 polypeptide of SEQ ID NO: 51 (T63A) (from UniProt Q14116 37-193) (ligand)” was run?
A: The Kd was 2.59 nM.

Q: Which Kd does the source give for “IL-18 polypeptide of SEQ ID NO: 52 (E06K, T63A) (from UniProt Q14116 37-193) (ligand)” here?
A: The Kd was 0.83 nM.

Q: Which Kd does the source give for “IL-18 polypeptide of SEQ ID NO: 53 (K53A, T63A) (from UniProt Q14116 37-193) (ligand)” here?
A: Its Kd is 198 nM.
